In US20050277575A1 (published 2005):

Molecular target: T1, S100A4 protein (recombinant human, GST tag removed) (human)
T1 chain: YVERW
Assay: cell-based or functional assay

- IC50 for inhibition of the accelerating effect of S100A4 on t-PA-dependent conversion of plasminogen to plasmin: 6 µM
Binder: Ac-AGLREVYGASLASYMERW-NH2 [peptide SEQ ID NO 6, Ac-AGLREVYGASLASYMERW-amide]
